Data from patent US20180298422A1.

Molecular target: Taq DNA polymerase (Thermus aquaticus) (UniProt P19821)
Assay: cell-based or functional assay

Sequence of UniProt P19821 (P19821 whole entry): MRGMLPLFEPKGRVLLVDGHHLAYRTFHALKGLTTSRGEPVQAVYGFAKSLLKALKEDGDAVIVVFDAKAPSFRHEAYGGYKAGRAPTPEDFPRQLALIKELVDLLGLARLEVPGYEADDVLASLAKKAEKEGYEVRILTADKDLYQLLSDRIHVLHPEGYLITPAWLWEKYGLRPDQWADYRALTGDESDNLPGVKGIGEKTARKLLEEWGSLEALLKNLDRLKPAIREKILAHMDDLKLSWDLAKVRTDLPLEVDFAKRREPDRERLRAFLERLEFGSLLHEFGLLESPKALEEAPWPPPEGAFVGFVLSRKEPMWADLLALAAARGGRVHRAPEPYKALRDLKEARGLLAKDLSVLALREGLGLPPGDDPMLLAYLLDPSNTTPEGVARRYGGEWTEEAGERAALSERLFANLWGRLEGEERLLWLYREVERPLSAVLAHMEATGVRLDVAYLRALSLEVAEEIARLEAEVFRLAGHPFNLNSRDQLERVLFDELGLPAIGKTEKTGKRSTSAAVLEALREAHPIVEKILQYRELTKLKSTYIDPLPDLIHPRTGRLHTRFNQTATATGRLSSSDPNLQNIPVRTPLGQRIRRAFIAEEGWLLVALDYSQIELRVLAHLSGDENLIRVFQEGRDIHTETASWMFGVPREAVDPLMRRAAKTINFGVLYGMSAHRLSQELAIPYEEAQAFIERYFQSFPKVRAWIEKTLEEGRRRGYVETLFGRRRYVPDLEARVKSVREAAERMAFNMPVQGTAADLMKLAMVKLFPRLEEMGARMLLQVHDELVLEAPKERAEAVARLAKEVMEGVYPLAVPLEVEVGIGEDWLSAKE

- reactivation time of Taq DNA polymerase at 95 C in real-time PCR: < 0.5 min
Substance: JumpStart Antibody (Sigma Aldrich)
